Measurements from patent US20150266963A1 (ARGEN X B V, published 2015).

What was measured:
[1] = target: T1, human-mouse CD70 chimera chim-4 (Flag-TNC-CD70) (Mus musculus (Mouse), UniProt O55237 54-192); experiment: ELISA; chimera captured by anti-Flag mAb
T1 construct: also called chimera 4
T1 chain: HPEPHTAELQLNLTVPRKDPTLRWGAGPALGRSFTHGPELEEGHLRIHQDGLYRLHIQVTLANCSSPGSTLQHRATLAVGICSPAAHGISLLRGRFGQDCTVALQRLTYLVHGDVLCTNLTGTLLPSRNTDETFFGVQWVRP

[2] = target: T2, human CD70 expressed on the surface of cells (human, UniProt P32970 1-193); experiment: FACS MFI at 37 C, HH cells; reference SGN70
T2 construct: whole, on cells; also called cell surface expressed CD70; CD70 on cells
T2 sequence (looked up): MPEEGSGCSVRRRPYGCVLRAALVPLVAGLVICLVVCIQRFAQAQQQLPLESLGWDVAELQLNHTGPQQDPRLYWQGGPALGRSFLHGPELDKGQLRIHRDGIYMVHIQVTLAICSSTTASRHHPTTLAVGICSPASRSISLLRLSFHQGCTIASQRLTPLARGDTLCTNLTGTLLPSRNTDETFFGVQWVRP
Description: (§1) Several cancer cell lines were tested by FACS analysis for binding of ARGX-110 and SGN70 (described in US2010/0129362) at saturating mAb concentrations (at least 2 μg/ml). This was either done at 4° C. (1 hour incubation of cells with mAbs) or at 37° C. (15 minutes incubation of cells with mAbs). Binding was detected using anti-hIgG1-Fc-FITC (AF006, Binding Site) or anti-hIgG1-Fc-PE antibody (eBioscience, 12-4998). Fluorescence was measured using a flow cytometer.

[3] = target: T2, human CD70 expressed on the surface of …; experiment: FACS MFI at 37 C, Mec1 cells; reference SGN70
Description: as §1

[4] = target: T2, human CD70 expressed on the surface of …; experiment: FACS MFI at 37 C, 786-O cells; reference SGN70
Description: as §1

[5] = target: T2, human CD70 expressed on the surface of …; experiment: FACS MFI at 37 C, EBC-1 cells; reference SGN70
Description: as §1

[6] = target: T2, human CD70 expressed on the surface of …; experiment: FACS MFI at 37 C, SU-DHL-6 cells; reference SGN70
Description: as §1

[7] = target: T3, mouse Flag-TNC-CD70 (mouse, UniProt O55237 45-195); experiment: ELISA; mouse Flag-TNC-CD70 captured by anti-Flag mAb
T3 construct: extracellular domain; also called mouse CD70; not shown: Flag tag and TNC trimerisation domain
T3 sequence (looked up): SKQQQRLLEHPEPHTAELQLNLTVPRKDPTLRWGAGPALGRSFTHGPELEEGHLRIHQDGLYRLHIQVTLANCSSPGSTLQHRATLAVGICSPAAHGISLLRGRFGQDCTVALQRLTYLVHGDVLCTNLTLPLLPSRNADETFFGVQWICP

[8] = target: T4, human-mouse CD70 chimera chim-2.2 (Flag-TNC-CD70); experiment: ELISA; chimera captured by anti-Flag mAb; anti-human-Fc-HRP
T4 construct: also called chimera 2.2; not shown: N-terminal Flag tag, TNC trimerisation domain and any linkers of the Flag-TNC-CD70 construct
T4 chain: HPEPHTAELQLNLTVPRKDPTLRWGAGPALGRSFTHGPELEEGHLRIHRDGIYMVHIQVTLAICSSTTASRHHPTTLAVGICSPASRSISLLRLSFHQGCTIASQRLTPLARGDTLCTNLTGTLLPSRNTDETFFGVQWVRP
Description: (§2) A Maxisorb (Nunc) microtiter plate was coated with 3.5 μg/ml mouse M2 anti-Flag mAb (Sigma Aldrich, F3165) and the different chimeras were captured. A dilution series of the CD70 mAbs to be tested was applied starting at a concentration of 10 μg/ml and making 3-fold dilutions. After 2 hours, binding was detected using anti-human-Fc-HRP at a 16000-fold dilution. Staining was done with ABTS and OD at 405 nm was measured. As a positive control, CD27-Fc was applied which is able to bind to both human and mouse CD70 with good affinity as well as to the chimeric human-mouse CD70 variants.

[9] = target: T5, human-mouse CD70 chimera chim-2.3 (Flag-TNC-CD70); experiment: as above
T5 construct: also called chimera 2.3
T5 chain: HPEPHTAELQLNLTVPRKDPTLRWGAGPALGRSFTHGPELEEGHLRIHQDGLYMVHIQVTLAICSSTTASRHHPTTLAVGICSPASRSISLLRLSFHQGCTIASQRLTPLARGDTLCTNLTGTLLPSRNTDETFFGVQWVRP
Description: as §2

[10] = target: T6, human-mouse CD70 chimera chim-2.4 (Flag-TNC-CD70); experiment: as above
T6 construct: also called chimera 2.4
T6 chain: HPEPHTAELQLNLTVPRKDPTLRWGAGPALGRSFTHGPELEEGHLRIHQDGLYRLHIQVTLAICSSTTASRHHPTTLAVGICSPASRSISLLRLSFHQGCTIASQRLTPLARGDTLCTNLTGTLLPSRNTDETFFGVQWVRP
Description: as §2

[11] = target: T7, human-mouse CD70 chimera chim-1 (Flag-TNC-CD70) (Homo sapiens (Human), UniProt P32970 58-193, Soluble homotrimer held by the TNC domain; one CD70 ECD chain is given.); experiment: as above
T7 construct: also called chimera 1; not shown: N-terminal Flag tag, TNC (tenascin-C) trimerisation domain and any linkers of the Flag-TNC-CD70 construct
T7 chain: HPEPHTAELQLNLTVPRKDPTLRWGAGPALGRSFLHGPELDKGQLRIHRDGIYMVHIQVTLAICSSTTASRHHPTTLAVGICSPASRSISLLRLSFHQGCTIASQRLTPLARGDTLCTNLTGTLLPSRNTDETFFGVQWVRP
Description: as §2

[12] = target: T8, human-mouse CD70 chimera chim-2.1 (Flag-TNC-CD70) (Soluble homotrimer held by the TNC domain; one CD70 ECD chain is given.); experiment: as above
T8 construct: also called chimera 2.1; not shown: N-terminal Flag tag, TNC (tenascin-C) trimerisation domain and any linkers of the Flag-TNC-CD70 construct
T8 chain: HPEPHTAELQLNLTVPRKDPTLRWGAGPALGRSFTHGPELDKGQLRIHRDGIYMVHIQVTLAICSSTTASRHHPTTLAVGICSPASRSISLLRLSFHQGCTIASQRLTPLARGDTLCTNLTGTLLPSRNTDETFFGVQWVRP
Description: as §2

Signal in FACS of ARGX-110/signal in FACS of SGN70 [2]: 1.7 ratio
Signal in FACS of ARGX-110/signal in FACS of SGN70 [3]: 1.2 ratio
Signal in FACS of ARGX-110/signal in FACS of SGN70 [4]: 2.1 ratio
Signal in FACS of ARGX-110/signal in FACS of SGN70 [5]: 8.9 ratio
Signal in FACS of ARGX-110/signal in FACS of SGN70 [6]: 2.4 ratio
EC50 [8]: 0.016 mg/L
EC50 [9]: 0.015 mg/L
EC50 [10]: 0.014 mg/L
EC50 [11]: 0.027 mg/L
EC50 [12]: 0.015 mg/L
B1: ARGX-110 (non-fucosylated 41D12 human IgG1) (antibody, V domains shown)
VH: EVQLVESGGGLVQPGGSLRLSCAASGFTFSVYYMNWVRQAPGKGLEWVSDINNEGGTTYYADSVKGRFTISRDNSKNSLYLQMNSLRAEDTAVYYCARDAGYSNHVPIFDSWGQGTLVTVSS
VL: QAVVTQEPSLTVSPGGTVTLTCGLKSGSVTSDNFPTWYQQTPGQAPRLLIYNTNTRHSGVPDRFSGSILGNKAALTITGAQADDEAEYFCALFISNPSVEFGGGTQLTVLG
notes: also called 41D12 (ARGX-110)
binding result [1]: no binding (tested: dilution series from 10 µg/ml)
binding result [7]: no binding (tested: dilution series from 10 µg/ml)
